Target: T1, wild-type yeast Ugp1
T1 chain: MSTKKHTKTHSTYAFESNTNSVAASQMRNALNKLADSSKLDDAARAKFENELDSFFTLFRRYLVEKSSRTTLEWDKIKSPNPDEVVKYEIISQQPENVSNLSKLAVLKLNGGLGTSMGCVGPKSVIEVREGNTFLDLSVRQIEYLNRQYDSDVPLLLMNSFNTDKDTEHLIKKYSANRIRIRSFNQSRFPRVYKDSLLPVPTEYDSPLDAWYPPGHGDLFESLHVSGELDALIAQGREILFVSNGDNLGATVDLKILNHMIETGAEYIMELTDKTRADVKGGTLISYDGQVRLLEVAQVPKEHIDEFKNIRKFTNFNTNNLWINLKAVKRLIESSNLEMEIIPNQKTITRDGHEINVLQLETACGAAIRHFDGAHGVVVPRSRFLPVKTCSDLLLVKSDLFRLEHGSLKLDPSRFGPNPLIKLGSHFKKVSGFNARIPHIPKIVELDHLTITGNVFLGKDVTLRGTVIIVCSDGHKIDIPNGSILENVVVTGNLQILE

B1: human PASK (protein)
chain: MEDGGLTAFEEDQRCLSQSLPLPVSAEGPAAQTTAEPSRSFSSAHRHLSRRNGLSRLCQSRTALSEDRWSSYCLSSLAAQNICTSKLHCPAAPEHTDPSEPRGSVSCCSLLRGLSSGWSSPLLPAPVCNPNKAIFTVDAKTTEILVANDKACGLLGYSSQDLIGQKLTQFFLRSDSDVVEALSEEHMEADGHAAVVFGTVVDIISRSGEKIPVSVWMKRMRQERRLCCVVVLEPVERVSTWVAFQSDGTVTSCDSLFAHLHGYVSGEDVAGQHITDLIPSVQLPPSGQHIPKNLKIQRSVGRARDGTTFPLSLKLKSQPSSEEATTGEAAPVSGYRASVWVFCTISGLITLLPDGTIHGINHSFALTLFGYGKTELLGKNITFLIPGFYSYMDLAYNSSLQLPDLASCLDVGNESGCGERTLDPWQGQDPAEGGQDPRINVVLAGGHVVPRDEIRKLMESQDIFTGTQTELIAGGQLLSCLSPQPAPGVDNVPEGSLPVHGEQALPKDQQITALGREEPVAIESPGQDLLGESRSEPVDVKPFASCEDSEAPVPAEDGGSDAGMCGLCQKAQLERMGVSGPSGSDLWAGAAVAKPQAKGQLAGGSLLMHCPCYGSEWGLWWRSQDLAPSPSGMAGLSFGTPTLDEPWLGVENDREELQTCLIKEQLSQLSLAGALDVPHAELVPTECQAVTAPVSSCDLGGRDLCGGCTGSSSACYALATDLPGGLEAVEAQEVDVNSFSWNLKELFFSDQTDQTSSNCSCATSELRETPSSLAVGSDPDVGSLQEQGSCVLDDRELLLLTGTCVDLGQGRRFRESCVGHDPTEPLEVCLVSSEHYAASDRESPGHVPSTLDAGPEDTCPSAEEPRLNVQVTSTPVIVMRGAAGLQREIQEGAYSGSCYHRDGLRLSIQFEVRRVELQGPTPLFCCWLVKDLLHSQRDSAARTRLFLASLPGSTHSTAAELTGPSLVEVLRARPWFEEPPKAVELEGLAACEGEYSQKYSTMSPLGSGAFGFVWTAVDKEKNKEVVVKFIKKEKVLEDCWIEDPKLGKVTLEIAILSRVEHANIIKVLDIFENQGFFQLVMEKHGSGLDLFAFIDRHPRLDEPLASYIFRQLVSAVGYLRLKDIIHRDIKDENIVIAEDFTIKLIDFGSAAYLERGKLFYTFCGTIEYCAPEVLMGNPYRGPELEMWSLGVTLYTLVFEENPFCELEETVEAAIHPPYLVSKELMSLVSGLLQPVPERRTTLEKLVTDPWVTQPVNLADYTWEEVFRVNKPESGVLSAASLEMGNRSLSDVAQAQELCGGPVPGEAPNGQGCLHPGDPRLLTS
  Ugp1 phosphorylation (Western blot with phospho-specific Ugp1 antibody): transfected with human PASK and wild-type yeast Ugp1 (to promote phosphorylation) (lane 1) ... the phospho-Ugp1 band in lane 1

Source: patent US20140377774
